From the supplement of paper PMC11780869

Test system: Bacillus subtilis
Assay: cleaved RNA product abundance (RNA/gDNA barcode ratio) relative to median wild-type variant (ratio to wild type); higher = more accumulation of the downstream cleavage product
Procedure, shortened: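 Reporter mRNAs based on truncated aprE or tetM carried barcoded, mutagenized RNase Y cleavage-site windows built from oligos with a 9% error rate and were integrated into the B. subtilis chromosome. Cultures grew in LB at 37°C from OD600 0.0003 to 0.3. Cleaved RNA was gel-selected, reverse transcribed and barcode-sequenced together with genomic DNA barcodes, and UMIs were collapsed. Cleaved product abundance is the per-construct ratio of RNA to gDNA barcodes, scaled to the median of constructs carrying the unmutated site.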

[1] = experiment (reporter, strain, medium): exp 4a: truncated aprE reporter, strain BJT201 with 2% xylose (RNase J1 expressed), cleavage site: cggR-gapA (positions -7 to +36 mutated)
[2] = experiment (reporter, strain, medium): exp 2b: truncated aprE reporter, strain BJT200, cleavage site: cggR-gapA (positions -7 to +36 mutated)
[3] = experiment (reporter, strain, medium): exp 8a: truncated aprE reporter, strain BJT201 with 2% xylose (RNase J1 expressed), cleavage site: glnRA (positions -5 to +31 mutated)

ACAGACGAAGGAGCCGCAAAGAAGTTATTAAGGGATGATTAATCCCACAATATAAATATCTCTCACTTATTTAAA
cleaved RNA product abundance [1]: 0.276

ACAGACGAAGGAGCCGCAAAGAGGTTATTAAGGCATGAATAATCCCTCAATATAAATATCTCTCACTTATTTAAA
cleaved RNA product abundance [2]: 0.0794

ACAGACGAAGGAGCCGCAAAGAAGTGATTAAGGGCTGAATAATCCCTCAATATAAATATCTCTCACTTATTTAAA
cleaved RNA product abundance [1]: 0.309

CGACATGTCCCGCTTCTTTCATTAATCCGTGAGCAAGTGTTTTGCTATATACATTTACCTTTTAAGAGGAGGAAT
cleaved RNA product abundance [3]: 0.375

ACAGACGAAGGAGCCGCAAAGAAGATATTAAGGGATGAATAATCCCTCAATATAAAGATCTCTCACTTATTTAAA
cleaved RNA product abundance [1]: 0.559

ACAGACGAAGGAGCCGCAAAGAAGCTATTAAGGGATCAATAATCCCTCAATATAAATATCTCTCACTTATTTAAA
cleaved RNA product abundance [1]: 0.425

ACAGACGAAGGAGCCGCAAAGAAGTTATGAAGGGATGAATAATCCCTTAATATAAATATCTCTCACTTATTTAAA
cleaved RNA product abundance [1]: 0.789

CGACATGTCCCGCTTCTTTCATTAATCCGTTAACAACTGTTTTTCTATATACATATACCTTTTAAGAGGAGGAAT
cleaved RNA product abundance [3]: 0.304

ACAGACGAAGGAGCCGCAAATAAGTTATTAAGGTATGAATAATCCCTCAATATAAATATCTCTCACTTATTTAAA
cleaved RNA product abundance [2]: 0.169
cleaved RNA product abundance [1]: 0.139

ACAGACGAAGGAGCCGCAAAGTAGTTATTATGGGATGAATAATCCCTCAATATAAATATCTCTCACTTATTTAAA
cleaved RNA product abundance [1]: 0.445

ACAGACGAAGGAGCCGCCAAGAAGTTATTAAGGGATGAATAATCACTCAATATAAATATCTCTCACTTATTTAAA
cleaved RNA product abundance [1]: 0.102

ACAGACGAAGGAGCCGCAAAGAAGTTATTAAGGGATGAATAATCCCTTAATAAAAATATCTCTCACTTATTTAAA
cleaved RNA product abundance (experiment (reporter, strain, medium): exp 6: tetM reporter, strain 168, cleavage site: cggR-gapA (positions -7 to +36 mutated)): 0.227

CGACATGTCCCGCTTCTTTCATTATTCCGTTAGCAATTGTTTTGCTATATACATTTACCTTTTAAGAGGAGGAAT
cleaved RNA product abundance [3]: 1.83

ACAGACGAAGGAGCCGCAAAGAAGTTTTTAAGGCATGAATAATCCCTCAATATAAATATCTCTCACTTATTTAAA
cleaved RNA product abundance [1]: 0.119

ACAGACGAAGGAGCCGCAAAGAAATTATTAAGGGATGAATAATCCCTCAGTATAAATATCTCTCACTTATTTAAA
cleaved RNA product abundance [1]: 0.215

ACAGACGAAGGAGCCGCAAAGAAGTTTTTAAGGGATGAATAATCCCTCATTATAAATATCTCTCACTTATTTAAA
cleaved RNA product abundance [1]: 0.405

ACAGACGAAGGAGCCGCAAAGAAGTTATTAACGGATGAATAATCCCTCCATATAAATATCTCTCACTTATTTAAA
cleaved RNA product abundance [1]: 0.129

ACAGACGAAGGAGCCGCAAAGAAGTTATTAAAGGATTAATAATCCCTCAATATAAATATCTCTCACTTATTTAAA
cleaved RNA product abundance [2]: 0.154
cleaved RNA product abundance [1]: 0.205

ACAGACGAAGGAGCCGCAAAGAAGTTATTAAGGGAAGAATAATGCCTCAATATAAATATCTCTCACTTATTTAAA
cleaved RNA product abundance [2]: 0.0918
cleaved RNA product abundance [1]: 0.132

CGACATGTCCCGCTTCTTTCATTACTCCGTTAGCAACTCTTTTGCTATATACATTTACCTTTTAAGAGGAGGAAT
cleaved RNA product abundance [3]: 1.33

CGACATGTCCCGCTTCTTTCATTAATCCGTTAGCAACTGGTTTGCTATATACATTTACCTTTTAAGAGGAGGAAT
cleaved RNA product abundance [3]: 0.811

ACAGACGAAGGAGCCGCAAAGAAGTCATTAAGGGATTAATAATCCCTCAATATAAATATCTCTCACTTATTTAAA
cleaved RNA product abundance [1]: 0.236

ACAGACGAAGGAGCCGCAAAGAAGTTATTAAGGGATGATTAATCCATCAATATAAATATCTCTCACTTATTTAAA
cleaved RNA product abundance [2]: 0.124

ACAGACGAAGGAGCCGCAAACAAGTTAATAAGGGATGAATAATCCCTCAATATAAATATCTCTCACTTATTTAAA
cleaved RNA product abundance [1]: 0.274

ACAGACGAAGGAGCCGCAAACAAATTATTAAGGGATGAATAATCCCTCAATATAAATATCTCTCACTTATTTAAA
cleaved RNA product abundance [2]: 0.711
cleaved RNA product abundance [1]: 0.696

ACAGACGAAGGAGCCGCAAATAAGTTATAAAGGGATGAATAATCCCTCAATATAAATATCTCTCACTTATTTAAA
cleaved RNA product abundance [2]: 0.337
cleaved RNA product abundance [1]: 0.421

ACAGACGAAGGAGCCGCAAAGAAGTTATTAAAGGATGAATAATCCCTCAATATATATATCTCTCACTTATTTAAA
cleaved RNA product abundance [1]: 0.16

ACAGACGAAGGAGCCGCAAAGAAATTATTAAGGGATGAATACTCCCTCAATATAAATATCTCTCACTTATTTAAA
cleaved RNA product abundance [2]: 0.416

CGACATGTCCCGCTTCTTTCATTACTCCGTTAGCAACTGTTTTGATATATACATTTACCTTTTAAGAGGAGGAAT
cleaved RNA product abundance [3]: 0.587

ACAGACGAAGGAGCCGCAACGAAGTTATTAAGGGATGAATAATCCCTCAATATACATATCTCTCACTTATTTAAA
cleaved RNA product abundance [1]: 0.706

ACAGACGAAGGAGCCGCAAAGAAGTTATTAAGGGATGAATAAACCCTCAACATAAATATCTCTCACTTATTTAAA
cleaved RNA product abundance [2]: 0.122
cleaved RNA product abundance [1]: 0.0675

CGACATGTCCCGCTTCTTTCATTAATCCGTTCGCAACAGTTTTGCTATATACATTTACCTTTTAAGAGGAGGAAT
cleaved RNA product abundance [3]: 0.419

ACAGACGAAGGAGCCGCAAAGAAGTTATTAAGGGGTGAATAATTCCTCAATATAAATATCTCTCACTTATTTAAA
cleaved RNA product abundance [1]: 0.228

ACAGACGAAGGAGCCGCAAAGAAGTTATTAAGGAATGAATAATCCCTCAAAATAAATATCTCTCACTTATTTAAA
cleaved RNA product abundance [2]: 0.0937
cleaved RNA product abundance [1]: 0.122

CGACATGTCCCGCTTCTTTCATTAATCCGTTAGCAACTGTTTTGCTATATACATTGACCTTTTAAGAGGAGGAAT
cleaved RNA product abundance [3]: 0.989

ACAGACGAAGGAGCCGCAAAGAAGTTATTATGGGATGAATAATCCCTCAATATATATATCTCTCACTTATTTAAA
cleaved RNA product abundance [1]: 0.503

ACAGACGAAGGAGCCGCAAACAAGTTATTAACGGATGAATAATCCCTCAATATAAATATCTCTCACTTATTTAAA
cleaved RNA product abundance [2]: 0.111
cleaved RNA product abundance [1]: 0.0915

ACAGACGAAGGAGCCGCAAAGAAGTTATTAAGGGACGAATAATCCCTCAATATAAATAGCTCTCACTTATTTAAA
cleaved RNA product abundance [1]: 0.3

ACAGACGAAGGAGCCGCAAAGAAGTTTTTAAGGGAAGAATAATCCCTCAATATAAATATCTCTCACTTATTTAAA
cleaved RNA product abundance [2]: 0.128
cleaved RNA product abundance [1]: 0.149

ACAGACGAAGGAGCCGCAAAGAAGTTATTAAGTGGTGAATAATCCCTCAATATAAATATCTCTCACTTATTTAAA
cleaved RNA product abundance [1]: 0.103

CGACATGTCCCGCTTCTTTCATTAATTCGTTAGCAACTGTTTTGCTATATACATTTATCTTTTAAGAGGAGGAAT
cleaved RNA product abundance [3]: 1.4

CGACATGTCCCGCTTCTTTCATTAATCCGTCAGCAACTGTTTTGCTATATATATTTACCTTTTAAGAGGAGGAAT
cleaved RNA product abundance [3]: 0.367

CGACATGTCCCGCTTCTTTCATTAATCCGTTAGAAACTGTTTTGCTGTATACATTCATCTTTTAAGAGGAGGAAT
cleaved RNA product abundance [3]: 0.0887

CGACATGTCCCGCTTCTTTCATTAATCCGTTAGCAACTATTTTGCTATATACATTTAGCTTTTAAGAGGAGGAAT
cleaved RNA product abundance [3]: 1.16

ACAGACGAAGGAGCCGCAAAGAAGTTATTAAGGGATGAATAATCCCTCAATATAAAAATCACTCACTTATTTAAA
cleaved RNA product abundance [1]: 1.16

ACAGACGAAGGAGCCGCAAAGAAGTTATTAAGGGATGAATAAGCCCTCAAGATAAATATCTCTCACTTATTTAAA
cleaved RNA product abundance [1]: 0.176

ACAGACGAAGGAGCCGCAAATAAGTTATTAAGGGATGAATAATCCCTCAAGATAAATATCTCTCACTTATTTAAA
cleaved RNA product abundance [1]: 0.373

ACAGACGAAGGAGCCGCAAAGATGTAATTAAGGGATGAATAATCCCTCAATATAAATATCTCTCACTTATTTAAA
cleaved RNA product abundance [1]: 0.427

ACAGACGAAGGAGCCGCAAAGAACTTATTAAGGGATGAATAATTCCTCAATATAAATATCTCTCACTTATTTAAA
cleaved RNA product abundance [2]: 0.315
cleaved RNA product abundance [1]: 0.32

ACAGACGAAGGAGCCGCAAAGAAGTTATTAAGGTATGAATAATCCCTCAATATAAACATCTCTCACTTATTTAAA
cleaved RNA product abundance [1]: 0.124

CGACATGTCCCGCTTCTTTCATTAAACCGTTAGCAACTGTTTTGATATATACATTTACCTTTTAAGAGGAGGAAT
cleaved RNA product abundance [3]: 0.428

ACAGACGAAGGAGCCGCAAAGAAGTTAATAAGGGATGAATAATCCATCAATATAAATATCTCTCACTTATTTAAA
cleaved RNA product abundance [2]: 0.166
cleaved RNA product abundance [1]: 0.224

ACAGACGAAGGAGCCGCAAAGAAGTTATTAAGGGATGTATAATCCCTCAATATAAATCTCTCTCACTTATTTAAA
cleaved RNA product abundance [1]: 0.82

CGACATGTCCCGCTTCTTTCATTAATGCTTTAGCAACTGTTTTGCTATATACATTTACCTTTTAAGAGGAGGAAT
cleaved RNA product abundance [3]: 0.618

ACAGACGAAGGAGCCGCAAAGAAGTTATTAAGGATTGAATAATCCCTCAATATAAATATCTCTCACTTATTTAAA
cleaved RNA product abundance [2]: 0.217
cleaved RNA product abundance [1]: 0.301

CGACATGTCCCGCTTCTTTCATTAATCCGTAAGCAACTGTTTTGCTATATACATATACCTTTTAAGAGGAGGAAT
cleaved RNA product abundance [3]: 0.551

ACAGACGAAGGAGCCGCAAAGAAGTTATAAAGGTATGAATAATCCCTCAATATAAATATCTCTCACTTATTTAAA
cleaved RNA product abundance [2]: 0.0925
cleaved RNA product abundance [1]: 0.0975

ACAGACGAAGGAGCCGCAAAGAAGTTATTAAGGGATGAATAATCCTTCGATATAAATATCTCTCACTTATTTAAA
cleaved RNA product abundance [1]: 0.257

CGACATGTCCCGCTTCTTTCATTAATCCGTTAGCAACCGTTTTGCTATATACATTTACATTTTAAGAGGAGGAAT
cleaved RNA product abundance [3]: 0.523

ACAGACGAAGGAGCCGCAAAGAAGTTATTAAGGGATGAATAATCCATCAATATACATATCTCTCACTTATTTAAA
cleaved RNA product abundance [1]: 0.296

ACAGACGAAGGAGCCGCAAAGAAGTTATTAAGGGATGAAAAATCTCTCAATATAAATATCTCTCACTTATTTAAA
cleaved RNA product abundance [1]: 0.506
